Tests used:
[1] = target: T1, recombinant human LOX-1 protein (Homo sapiens, UniProt P78380); experiment: IgG avidity test, modified ELISA with 4M urea washes; format: binding; conditions: for avidity: 4M urea ELISA; for strength of binding to hLOX-1 recombinant protein: 4M urea washes, rank order 6A10=12D9>12E4>4D6
T1 construct: The hLOX1 immunogen was cloned into pET30a Escherichia coli expression vector and produced; His tag; made in house; host or cells: Escherichia coli (pET30a)
Procedure: Anti-hLOX-1 mAbs samples were tested for anti-hLOX-1-specific binding to recombinant antigen using a modified ELISA and avidity determined by 4M urea washes against recombinant human LOX-1 protein.
Anti-LOX-1 mAbs samples were tested for anti-LOX-1-specific binding to recombinant antigen using a modified ELISA and avidity determined by 4M urea washes against recombinant human LOX-1 protein. […] Overall out of 16 clones identified, 6 were stronger binders, and 4 were high binders in rank order of strength of binding 6A 10=12D9>12E4>4D6.
Microtiter plates previously coated with recombinant Lox-1 antigens were washed 3 times with PBS plus 0.05% tween 20 (PBST). Hybridomas 1B6, 2A10, 3D8, 3E6, 4D6, 5C2, 5F5, 6A10, 8E7, 9E12, 10H11, 11A6, 12D9, 11C5, 12A10, 12E4, 14A12, and 12G6 samples were diluted as indicated and added (100 μl/well). The avidity of antibodies against hLOX-1 protein was determined by a particle disruption ELISA using 4M Urea. The binding of hLOX1 protein and incubation with mAbs were performed followed by a 5-minute incubation with urea after washing five times with 0.05% PBST. Control (urea-untreated) wells were treated with PBS during the 5-minute incubation. The anti-human IgG conjugated with horseradish peroxidase (HRP) was added with the dilution of 1/5000 in PBS for 1 hour. Afterwards, the plate is washed 5 times, and 100 μl of 3,3′5,5′-Tetramethylbenzidine (TMB) Substrate (Sigma-Aldrich, USA) is added to each well for 10 minutes before the reaction being stopped with 2M H2SO4 solution. The plate is read at 450 nm by Biotek ELISA plate reader.

[2] = target: T2, recombinant full length hLOX1 protein (Homo sapiens, UniProt P78380); experiment: Western blot against native and denatured full-length recombinant hLOX1; format: binding; conditions: for binding to denatured LOX-1: denatured condition; for binding to native LOX-1: native condition
T2 construct: The hLOX1 immunogen was cloned into pET30a Escherichia coli expression vector and produced; His tag; made in house; host or cells: Escherichia coli (pET30a)
Source text: FIGS. 5A and 5B provide a series of gels showing the binding and specificity of anti-LOX-1 mAbs to target protein analyzed by Western blot analysis. In each figure, the first row of gels was loaded with denatured LOX-1, while the second row of gels was loaded with native LOX-1, as indicated in Example. The clone numbers of the anti-LOX-1 antibodies are listed below the gels.
Immunological reactivity of hLox-1 antibodies was characterized by Western blot analysis against native and denatured full-length recombinant proteins. Protein samples were electrophoretically separated under native or denaturing conditions on SDS-PAGE, performed using Novex gels with reagents as followed: 4-10% mini-gel, 10× Native-PAGE running buffer and 2× Native-PAGE: sample buffer. Denatured protein was heated in a heat block for 10 minutes at 57° C. Two micrograms (2 μg) of recombinant full length hLOX1 protein or non-specific POWV-Env viral protein was loaded to each well along with a protein size marker as a ladder. Gels were run at 150 V for 1 hour in a running buffer. Protein was transferred to a nitrocellulose membrane using the iBlot 2 Gel Transfer Device (Life Technologies). Membranes were blocked in Odyssey blocking buffer (Licor) for 1 hour at room temperature. Indicated hybridomas were diluted 1:250 in 0.5× Odyssey blocking buffer with 0.1% Tween-20 (BioRad) and incubated with the membranes overnight at 4° C. Membranes were washed and then incubated with the appropriate secondary antibody (goat anti-mouse IRDye680RD) for hybridoma samples for 1 hour at room temperature. After washing with PBST 5 times, membranes were imaged on the Odyssey infrared imager.

[3] = target: T3, LOX-1 antigen present on the cell surface of 293T cells (Homo sapiens, UniProt P78380); experiment: flow cytometry on hLOX-1 plasmid transfected 293T cells; format: cell-based; conditions: 1 μg/ml antibody
T3 construct: expressed in transfected cells; host or cells: 293T cells
Procedure: (§1) FIG. 8A is a flow cytometric histogram showing fluorescent intensity of cells incubated with recombinantly expressed anti-LOX-1 (IgG1) on the plasmid hLOX-1 transfected cells. Anti-hLOX-1/DNA transfected cells were stained with 1 μg/ml of anti-Lox1 (IgG1) (6A10) antibody plus FITC-labelled goat anti-human IgG secondary antibody. […] FIG. 8B show flow cytometry analysis of PBMCs from whole blood. Flow cytometry analysis of anti-hLOX-1 binding to CD11c^+, CD14^+, CD19^+ and CD3^+ cells in PBMCs from healthy donors. Flow cytometric analyses of anti-CD3, CD4, CD14, CD19 and anti-Lox1 monoclonal antibodies were used to detect their lineage specificity.

[4] = test system: CD11c+, CD14+, CD19+ and CD3+ cells in PBMCs; experiment: flow cytometry of PBMCs from healthy donors; format: cell-based, human
Procedure: as §1

B1: 6A10: mouse monoclonal anti-human LOX-1 antibody, VH SEQ ID NO: 3, VL SEQ ID NO: 5 (antibody, V domains shown)
VH: MGWSWIFLFLLSGTAGVLSEVQLQQSGPELVKPGASVKISCKASGYSFTGYYMHWVKQSHVKSLEWIGRINPYNGATSYNQNFKDKASLTVDKSSSTAYMELHSLTSEDSAVYYCAPDVAYWGQGTLVTVSA
VL: MRTPAQFLGILLLWFPGIKCDIKMTQSPSSMYASLGERVTITCKASQDINSYLSWFQQKPGKSPKTLIYRANRLVDGVPSRFSGSGSGQDYSLTISSLEYEDMGIYYCLQYDEFPPWTFGGGTKLEIK
modifications: Amino acid sequence of variable region of the 6A10 heavy chain.; SIGNAL (1)..(19) signal seqeunce; (20)..(49) FR1; (50)..(54) CDR1; (55)..(68) FR2; (69)..(85) CDR2; (86)..(117) FR3; (118)..(121) CDR3; (122)..(132) FR4; Amino acid sequence of variable region of the 6A10 light chain.; SIGNAL (1)..(20) signal seqeunce; (21)..(43) FR1; (44)..(54) CDR1; (55)..(69) FR2; (70)..(76) CDR2; (77)..(108) FR3; (109)..(118) CDR3; (119)..(128) FR4
avidity [1]: strong avidity
strength of binding to hLOX-1 recombinant protein [1]: high binders
binding to denatured LOX-1 [2]: not denatured LOX-1 (or binding to denatured LOX-1 at a significantly lower level)
binding to native LOX-1 [2]: demonstrate binding to native LOX-1

B2: 12D9: mouse monoclonal anti-human LOX-1 antibody, VH SEQ ID NO: 11, VL SEQ ID NO: 13 (antibody, V domains shown)
VH: MAWVWTLLFLMAAAQSAQAQIQLVQSGPELKKPGETVKISCKASGYTFTNYGMNWVKQTPGKGLKWMGWINTYTGEPTYTDDFKGRFAFSLETSASTASLQIINLKNEDTATYFCARGGDFYAMDYWGQGTSVTVSS
VL: MESQTLVFISILLWLYGADGNIVMTQSPKSMSMSVGERVTLSCKASENVGTYVSWYQQKPEQSPKLVIFGASNRNTGVPDRFTGSGFATDFTLTISSVQAEDLGDYHCGQSSNYPYTFGGGTKLEIK
modifications: Amino acid sequence of variable region of the 12D9 heavy chain.; (1)..(19) signal; (20)..(49) FR1; (50)..(54) CDR1; (55)..(68) FR2; (86)..(117) FR3; (118)..(126) CDR3; (127)..(137) FR4; Amino acid sequence of variable region of the 12D9 light chain.; (1)..(20) signal; (21)..(43) FR1; (44)..(54) CDR1; (55)..(69) FR2; (70)..(76) CDR2; (77)..(108) FR3; (109)..(117) CDR3; (118)..(127) FR4
avidity [1]: strong avidity
strength of binding to hLOX-1 recombinant protein [1]: high binders
binding to denatured LOX-1 [2]: not denatured LOX-1 (or binding to denatured LOX-1 at a significantly lower level)
binding to native LOX-1 [2]: demonstrate binding to native LOX-1

B3: anti-Lox1 (IgG1) (6A10): recombinant antibody, clone 6A10 sequence in IgG1 framework, expressed in Expi293F cells (antibody, V domains shown)
VH: EVQLQQSGPELVKPGASVKISCKASGYSFTGYYMHWVKQSHVKSLEWIGRINPYNGATSYNQNFKDKASLTVDKSSSTAYMELHSLTSEDSAVYYCAPDVAYWGQGTLVTVSA
VL: DIKMTQSPSSMYASLGERVTITCKASQDINSYLSWFQQKPGKSPKTLIYRANRLVDGVPSRFSGSGSGQDYSLTISSLEYEDMGIYYCLQYDEFPPWTFGGGTKLEIK
binding to non-transfected cells [3]: no binding above background to non-transfected cells
binding to hLOX-1 transfected cells ([3]; FITC-labelled goat anti-human IgG secondary): Specific binding to cells transfected with LOX-1 antigen
binding to CD3+ cells in PBMCs [4]: not to CD3^+ cells
binding to immune subset cells in PBMCs ([4]; CD11c+, CD14+, CD19+ cells): binds to immune subset cells

B4: 3D8: mouse monoclonal anti-human LOX-1 antibody, VH SEQ ID NO: 25, VL SEQ ID NO: 27 (antibody, V domains shown)
VH: MEWSWIFLFLLSGTAGVHSEVQLQQSGPELVKPGASVKMSCKASGYTFTSYVMHWVKQKPGQGLEWIGYINPYNDGTKYNEKFKGKATLTSDKSSSTAYMELSSLTSEDSAVYYCARGVYDGYPDYWGQGTTLTVSS
VL: MVSTSQLLGLLLFWTSASRCDIVMTQSPATLSVTPGDRVSLSCRASQSISDYLHWYQQKSHESPRLLIKYASQSISGIPSRFSGSGSGSDFTLSINSVEPEDVGVYYCQNGHSFPYTFGGGTKLEIK
modifications: Amino acid sequence of variable region of the 3D8 heavy chain.; (1)..(19) Signal; (20)..(49) FR1; (50)..(54) C DR1; (55)..(68) FR2; (69)..(85) CDR2; (86)..(117) FR3; (118)..(126) CDR3; (127)..(137) FR4; Amino acid sequence of variable region of the 3D8 light chain.; (1)..(20) signal; (21)..(43) FR1; (44)..(54) CDR1; (55)..(69) FR2; (70)..(76) CDR2; (77)..(108) FR3; (109)..(117) CDR3; (118)..(127) FR4
binding to denatured LOX-1 [2]: not denatured LOX-1 (or binding to denatured LOX-1 at a significantly lower level)
binding to native LOX-1 [2]: demonstrate binding to native LOX-1

B5: 12E4: mouse monoclonal anti-human LOX-1 antibody, VH SEQ ID NO: 15, VL SEQ ID NO: 17 (antibody, V domains shown)
VH: MGWSWIFLFLLSGTAGVHSEVQLQQSGPELVKPGASMKISCKASGYSFTGYTMNWVKQSHGKNLEWIGLINPYNGGTSYNQKFKGKATLTVDKSSSTAYMELLSLTSEDSAVYYCARGGFYAMDYWGQGTSVTVSS
VL: MSSAQFLGLLLLCFQGTRCDIQMTQTTSSLSASLGDRVTISCSASQGISNYLNWYQQKPDGTVKLLIYYTSSLHSGVPSRFSGSGSGTDYSLTISNLEPEDIATYYCQQYSKLPYTFGGGTKLEIK
modifications: Amino acid sequence of variable region of the 12E4 heavy chain.; (1)..(19) signal; (20)..(49) FR1; (50)..(54) CDR1; (55)..(68) FR2; (69)..(85) CDR2; (86)..(117) FR3; (118)..(125) CDR3; (126)..(136) FR4; Amino acid sequence of variable region of the 12E4 light chain.; (20)..(42) FR1; (43)..(53) CDR1; (54)..(68) FR2; (69)..(75) CDR2; (76)..(107) FR3; (108)..(116) CDR3; (117)..(126) FR4
strength of binding to hLOX-1 recombinant protein [1]: high binders
binding to denatured LOX-1 [2]: not denatured LOX-1 (or binding to denatured LOX-1 at a significantly lower level)
binding to native LOX-1 [2]: demonstrate binding to native LOX-1

Reference: US20220381787A1, “NOVEL LOX-1 ANTIBODY COMPOSITIONS, LOX1 NEUTRALIZATION ASSAY AND METHODS OF TREATMENT USING SAME” (The Wistar Institute of Anatomy and Biology, priority 2019, published 2022)
